{"source": "paper PMC10406883", "proteins": {"B1": {"name": "4F2hc (CD98hc): N365Q (protein)", "parent chain": "MELQPPEASIAVVSIPRQLPGSHSEAGVQGLSAGDDSELGSHCVAQTGLELLASGDPLPSASQNAEMIETGSDCVTQAGLQLLASSDPPALASKNAEVTGTMSQDTEVDMKEVELNELEPEKQPMNAASGAAMSLAGAEKNGLVKIKVAEDEAEAAAAAKFTGLSKEELLKVAGSPGWVRTRWALLLLFWLGWLGMLAGAVVIIVRAPRCRELPAQKWWHTGALYRIGDLQAFQGHGAGNLAGLKGRLDYLSSLKVKGLVLGPIHKNQKDDVAQTDLLQIDPNFGSKEDFDSLLQSAKKKSIRVILDLTPNYRGENSWFSTQVDTVATKVKDALEFWLQAGVDGFQVRDIENLKDASSFLAEWQNITKGFSEDRLLIAGTNSSDLQQILSLLESNKDLLLTSSYLSDSGSTGEHTKSLVTQYLNATGNRWCSWSLSQARLLTSFLPAQLLRLYQLMLFTLPGTPVFSYGDEIGLDAAALPGQPMEAPVMLWDESSFPDIPGAVSANMTVKGQSEDPGSLLSLFRRLSDQRSKERSLLHGDFHAFSAGPGLFSYIRHWDQNERFLVVLNFGDVGLSAGLQASDLPASASLPAKADLLLSTQPGREEGSPLELERLKLEPHEGLLLRFPYAA"}, "B2": {"name": "4F2hc (CD98hc): PNGase F (protein)", "parent chain": "B1 parent chain"}, "B3": {"name": "4F2hc (CD98hc): tunicamycin (TM) (protein)", "parent chain": "B1 parent chain"}, "B4": {"name": "4F2hc (CD98hc): 122-311del B3GNT3 (protein)", "parent chain": "B1 parent chain"}, "B5": {"name": "4F2hc (CD98hc): 4NQ (protein)", "parent chain": "B1 parent chain"}, "B6": {"name": "4F2hc (CD98hc): B3GNT3KO (protein)", "parent chain": "B1 parent chain"}}, "key": {"[1]": {"assay": "Western blot, shSLC3A2 PANC-1", "settings": "glycan lost"}, "[2]": {"assay": "Flow cytometry, shSLC3A2 MIA PaCa-2", "settings": "glycan lost; control: WT 4F2hc reconstitution in shSLC3A2 MIA PaCa-2"}, "[3]": {"assay": "CHX chase, 4F2hc remaining by western blot"}, "[4]": {"assay": "Confocal: 4F2hc membrane expression, colocalization with xCT", "settings": "glycan lost; control: WT 4F2hc reconstitution"}, "[5]": {"assay": "Confocal and flow cytometry, PANC-1", "settings": "glycan lost; control: no PNGase F"}, "[6]": {"assay": "Confocal: membrane colocalization of 4F2hc and xCT", "settings": "glycan lost; control: no tunicamycin"}, "[7]": {"assay": "Western blot, PANC-1, BxPC-3, MIA PaCa-2", "settings": "glycan changed form; control: Cas9Control cells"}}}
{"protein": "B1", "values": [{"measurement": "other: protein levels of xCT, GPX4, B3GNT3", "setting": "[1]", "result": "decreases"}, {"measurement": "other: membrane expression of partner xCT", "setting": "[2]", "result": "decreases"}, {"measurement": "degradation_or_half_life", "setting": "[3]; glycan lost", "result": "decreases"}, {"measurement": "localisation_or_trafficking", "setting": "[4]", "result": "decreases"}]}
{"protein": "B2", "values": [{"measurement": "localisation_or_trafficking", "setting": "[5]", "result": "abolishes"}]}
{"protein": "B3", "values": [{"measurement": "degradation_or_half_life", "setting": "[3]; glycan lost, control: no tunicamycin", "result": "decreases"}, {"measurement": "localisation_or_trafficking", "setting": "[6]", "result": "decreases"}]}
{"protein": "B4", "values": [{"measurement": "degradation_or_half_life", "setting": "[3]; glycan changed form, control: 122-311OE (active B3GNT3) in B3GNT3KO cells", "result": "decreases"}]}
{"protein": "B5", "values": [{"measurement": "other: protein levels of xCT, GPX4, B3GNT3", "setting": "[1]", "result": "decreases"}, {"measurement": "other: membrane expression of partner xCT", "setting": "[2]", "result": "decreases"}, {"measurement": "degradation_or_half_life", "setting": "[3]; glycan lost", "result": "decreases"}, {"measurement": "localisation_or_trafficking", "setting": "[4]", "result": "decreases"}]}
{"protein": "B6", "values": [{"measurement": "expression_or_secretion", "setting": "[7]", "result": "increases"}, {"measurement": "degradation_or_half_life", "setting": "[3]; glycan changed form, control: Cas9Control cells", "result": "decreases"}]}
